# Numbering of substitutions follows the chain as printed.
# T1: recombinant mouse VISTA (His-tagged) (mouse, UniProt Q9D659 33-191)
# T1 construct: also called murine VISTA; mVISTA
# T1 sequence (looked up): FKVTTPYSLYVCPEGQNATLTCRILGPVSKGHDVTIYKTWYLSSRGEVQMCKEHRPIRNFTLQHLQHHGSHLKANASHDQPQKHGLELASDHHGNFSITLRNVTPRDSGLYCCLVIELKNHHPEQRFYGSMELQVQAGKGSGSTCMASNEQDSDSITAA
# T2: recombinant rat VISTA (His-tagged) (rat, UniProt A0ABK0L5H3 33-192)
# T2 sequence: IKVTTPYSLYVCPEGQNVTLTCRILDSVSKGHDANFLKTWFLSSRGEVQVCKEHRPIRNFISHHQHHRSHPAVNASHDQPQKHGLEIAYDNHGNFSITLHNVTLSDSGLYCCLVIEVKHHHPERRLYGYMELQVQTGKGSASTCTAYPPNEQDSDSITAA
# T3: human B7H4 (human, UniProt Q7Z7D3 25-258, limits assumed)
# T3 construct: also called VTCN1
# T3 sequence (looked up): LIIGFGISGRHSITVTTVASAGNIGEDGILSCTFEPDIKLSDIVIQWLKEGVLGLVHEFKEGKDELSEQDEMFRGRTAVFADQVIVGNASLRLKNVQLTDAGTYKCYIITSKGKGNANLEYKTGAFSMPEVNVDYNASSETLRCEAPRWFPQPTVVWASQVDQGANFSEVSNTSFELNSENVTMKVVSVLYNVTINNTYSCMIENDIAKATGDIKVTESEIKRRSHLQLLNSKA
# B1: anti-VISTA clone V4-C24 IgG1 (antibody, V domains shown)
# VH: QVQLQESGPGLVKPSDTLSLTCTVSGYSITSDYTWNWIRQTPGKGLEWIGHITYSGSVSYNPSLRSRVTISRDTSKNQFSLKLSSVTAADTATYSCARALYYPWYFDVWGTGTTVTVSS
# VL: EIVLTQSPATLSLSPGERATLSCRASSSVGYIHWYQQKPGQAPRPLIYTTSYRATGIPARFSGSGSGTDNTLTISSLEPEDSAVYYCQQWSSYPPITFGGGTKLEVKR
# B2: anti-VISTA clone V4-C27 IgG1 (antibody, V domains shown)
# VH: B1 VH
# VL: B1 VL with T49A, S51Y, Y52N
# B3: anti-VISTA clone V4-C26 IgG1 (antibody)
# heavy: not shown
# light: EIVLTQSPATLSLSPGERATLSCRASSSVGYIHWYQQKPGQAPRPIIYTTSNRATGIPARFSGSGSGTDNTLTISSLEPEDSAVYYCQQWSSYPPITFGGGTKLEVKRTVAAPSVFIFPPSDEQLKSGTASVVCLLNNFYPREAKVQWKVDNALQSGNSQESVTEQDSKDSTYSLSSTLTLSKADYEKHKVYACEVTHQGLSSPVTKSFNRGEC
# B4: anti-VISTA clone 4M2-C12 IgG1 (antibody)
# heavy: not shown
# light: DIVITQTPAILSTSPGEKVTMTCRASSSVGYIHWYQQKPGSSPKPWIYATSNLASGVPARFSGSGSGTSNSLTITRVEAEDAATYYCQQWSSYPPITFGGGTKLEVKRTVAAPSVFIFPPSDEQLKSGTASVVCLLNNFYPREAKVQWKVDNALQSGNSQESVTEQDSKDSTYSLSSTLTLSKADYEKHKVYACEVTHQGLSSPVTKSFNRGEC
# notes: mouse variable regions on human IgG1/kappa constant regions; also called V4; V4pr
# Molecular target: T4, recombinant cynomolgus macaque VISTA (His-tagged) (cynomolgus macaque, UniProt A0A7N9IB00 33-194)
# T4 construct: also called cyno VISTA; cynomolgus monkey VISTA
# Assay: ELISA, plate coated with cyno VISTA
row,EC50,Binder
1,0.0385 nM,B1
2,0.0324 nM,B2
3,0.0356 nM,B3
4,0.0472 nM,B4

# Molecular target: T1, recombinant mouse VISTA (His-tagged)
# Assay: BLI (Octet), 1:1 global fit, His-tagged mouse VISTA captured
Kd,koff,kon,Binder
< 0.001 nM,< 1e-07 s⁻¹,401000 M⁻¹ s⁻¹,B1
< 0.001 nM,< 1e-07 s⁻¹,426000 M⁻¹ s⁻¹,B2
< 0.001 nM,< 1e-07 s⁻¹,403000 M⁻¹ s⁻¹,B3

# Molecular target: T5, recombinant human VISTA (His-tagged) (human, UniProt Q9H7M9 33-194)
# T5 construct: bought soluble protein (Sino Biological); also called hVISTA; human VISTA polypeptide
# Assay: ELISA, plate coated with human VISTA; unit nM from the legend paragraph 697
row,EC50,Binder
1,0.01 nM,B1
2,< 0.0007 nM,B2
3,0.0034 nM,B3
4,0.036 nM,B4

# Molecular target: T2, recombinant rat VISTA (His-tagged)
# Assay: ELISA, plate coated with rat VISTA
row,EC50,Binder
1,0.201 nM,B1
2,0.196 nM,B2
3,0.16 nM,B3
4,1.25 nM,B4

# Molecular target: T5, recombinant human VISTA (His-tagged)
# Assay: ELISA, plate coated with human VISTA; unit nM from the legend paragraph 699
row,EC50,Binder
1,0.073 nM,B1
2,0.047 nM,B2
3,0.064 nM,B3

# Molecular target: T5, recombinant human VISTA (His-tagged)
# Assay: BLI (Octet), 1:1 global fit, His-tagged human VISTA captured
Kd,koff,kon,Binder
< 0.001 nM,< 1e-07 s⁻¹,384000 M⁻¹ s⁻¹,B1
< 0.001 nM,< 1e-07 s⁻¹,465000 M⁻¹ s⁻¹,B2
< 0.001 nM,< 1e-07 s⁻¹,404000 M⁻¹ s⁻¹,B3

# Molecular target: T5, recombinant human VISTA (His-tagged)
# Assay: BLI (Octet), 1:1 global fit, human VISTA captured
# Experimental: (§1) Finally, the biosensors were incubated for 120 sec in PBS pH 7.2 to obtain the dissociation curves. Kinetic and affinity constants were calculated by global fitting of the association and dissociation data to a 1:1 binding model.
Kd,koff,kon,Binder
< 0.001 nM,< 1e-07 s⁻¹,373000 M⁻¹ s⁻¹,B1
0.119 nM,6.1e-05 s⁻¹,511000 M⁻¹ s⁻¹,B2
0.241 nM,9.8e-05 s⁻¹,407000 M⁻¹ s⁻¹,B3

# Molecular target: T6, human PD-L1 (human, UniProt Q9NZQ7 19-239)
# T6 construct: captured through a His tag in the BLI experiments; also called hPD-L1; B7H1/PDL-1
# Assay: BLI (Octet), His-tagged human PD-L1 on anti-Penta-HIS biosensor, antibody 500-15.6 nM
# Experimental: as §1
# T6 sequence (Q9NZQ7 19-239 limits assumed): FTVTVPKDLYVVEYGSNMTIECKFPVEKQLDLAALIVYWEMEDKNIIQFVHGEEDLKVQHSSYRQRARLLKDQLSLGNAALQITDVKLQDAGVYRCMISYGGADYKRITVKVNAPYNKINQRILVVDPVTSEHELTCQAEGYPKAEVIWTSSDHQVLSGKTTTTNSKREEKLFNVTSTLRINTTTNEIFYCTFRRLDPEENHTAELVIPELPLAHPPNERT
row,binding result,Binder
1,no binding (tested: 500 nM),B1
2,no binding (tested: 500 nM),B2
3,no binding (tested: 500 nM),B3

# Molecular target: T1, recombinant mouse VISTA (His-tagged)
# Assay: BLI (Octet), 1:1 global fit, His-tagged mouse VISTA captured
# Remark: another data set of the same source
Kd,koff,kon,Binder
< 0.001 nM,< 1e-07 s⁻¹,462000 M⁻¹ s⁻¹,B1
0.137 nM,5.5e-05 s⁻¹,398000 M⁻¹ s⁻¹,B2
0.183 nM,7.6e-05 s⁻¹,413000 M⁻¹ s⁻¹,B3

# Molecular target: T1, recombinant mouse VISTA (His-tagged)
# Assay: ELISA, plate coated with mouse VISTA; unit nM from the legend paragraph 699
row,EC50,Binder
1,0.116 nM,B1
2,0.073 nM,B2
3,0.086 nM,B3

# Molecular target: T3, human B7H4
# Assay: ELISA, plate coated with the antigen
row,binding result,Binder
1,no binding (tested: log -7.5 M),B1

# Molecular target: human PD-1 (human, UniProt Q15116 25-167)
# Assay: ELISA, plate coated with the antigen
# human PD-1, sequence (Q15116 25-167 limits assumed): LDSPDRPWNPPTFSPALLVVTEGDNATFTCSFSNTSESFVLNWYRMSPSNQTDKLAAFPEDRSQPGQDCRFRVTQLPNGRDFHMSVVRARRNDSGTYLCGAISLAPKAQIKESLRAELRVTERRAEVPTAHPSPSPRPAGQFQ
row,binding result,Binder
1,no binding (tested: log -7.5 M),B1

# Molecular target: T5, recombinant human VISTA (His-tagged)
# Assay: BLI (Octet QK384): His-tagged human VISTA on anti-Penta-HIS tips, V4 1000 to 31.3 nM as analyte, global fit
# Experimental: All measurements were performed at 25° C. with agitation at 1000 rpm. Kinetic measurements for antigen binding were performed by loading anti-VISTA antibody at different concentrations (indicated in the Figures) for 120 s, followed by a 120 s dissociation time by transferring the biosensors into assay buffer containing wells. Sensograms were referenced for buffer effects and then fitted using the Octet QK384 user software (Pall ForteBio, USA).
# Kinetic responses were subjected to a global fitting using a one site binding model to obtain values for association (kon), dissociation (koff) rate constants and the equilibrium dissociation constant (KD). Only curves that could be reliably fitted with the software (R²>0.90) were included in the analysis.
row,kon,Binder
1,45400 M⁻¹ s⁻¹,B4

# Molecular target: T5, recombinant human VISTA (His-tagged)
# Assay: ELISA, plate coated with human VISTA; unit nM from the legend paragraph 698
row,EC50,Binder
1,0.032 nM,B1
2,0.037 nM,B2
3,0.038 nM,B3

# Molecular target: T1, recombinant mouse VISTA (His-tagged)
# Assay: ELISA, plate coated with mouse VISTA
row,EC50,Binder
1,0.0304 nM,B1
2,0.0374 nM,B2
3,0.0325 nM,B3
4,0.387 nM,B4

# Molecular target: T5, recombinant human VISTA (His-tagged)
# Assay: ELISA, plate coated with human VISTA
row,EC50,Binder
1,0.0268 nM,B1
2,0.0295 nM,B2
3,0.0241 nM,B3
4,0.0319 nM,B4

# Molecular target: T1, recombinant mouse VISTA (His-tagged)
# Assay: ELISA, plate coated with mouse VISTA; unit nM from the legend paragraph 698
row,EC50,Binder
1,0.042 nM,B1
2,0.047 nM,B2
3,0.058 nM,B3

# Molecular target: T1, recombinant mouse VISTA (His-tagged)
# Assay: BLI (Octet), 1:1 global fit, mouse VISTA captured
# Experimental: All measurements were performed at 25° C. with agitation at 1000 rpm. […] Sensograms were referenced for buffer effects and then fitted using the Octet QK384 user software (Pall ForteBio, USA).
Kd,koff,kon,Binder
0.202 nM,7.6e-05 s⁻¹,378000 M⁻¹ s⁻¹,B1
0.395 nM,0.00016 s⁻¹,392000 M⁻¹ s⁻¹,B2
0.53 nM,0.0002 s⁻¹,382000 M⁻¹ s⁻¹,B3

# Molecular target: T1, recombinant mouse VISTA (His-tagged)
# Assay: ELISA, plate coated with mouse VISTA; unit nM from the legend paragraph 697
row,EC50,Binder
1,0.017 nM,B1
2,0.0023 nM,B2
3,0.0089 nM,B3
4,0.43 nM,B4

# — patent US20250313631A1 (HUMMINGBIRD BIOSCIENCE PTE, published 2025)
